Reference: the array DNA melting data of Ke et al.

Assay: melting temperature; UV melt of duplexes

Substance | Tm (sodium 0.07 M, strand 2 µM) [°C] | Tm (sodium 0.12 M, strand 2 µM) [°C] | Tm (sodium 0.22 M, strand 2 µM) [°C] | Tm (sodium 0.62 M, strand 2 µM) [°C] | Tm (sodium 1.02 M, strand 2 µM) [°C] | other results
CGTACTAGCGTTGGTCATGG+CCATGACCAACGCTAGTACG ((((((((((((((((((((+)))))))))))))))))))) | 59.6 | 63.1 | 66.6 | 70.5 | 71.1 | –
GACCTGACGTGGACCGCTCCTGGGCGTGGT+ACCACGCCCAGGAGCGGTCCACGTCAGGTC ((((((((((((((((((((((((((((((+)))))))))))))))))))))))))))))) | 74.4 | 78.4 | 81.5 | 85.2 | 86.4 | –
AGCAGTCCGCCACACCCTGA+TCAGGGTGTGGCGGACTGCT ((((((((((((((((((((+)))))))))))))))))))) | 66.5 | 69.9 | 74 | 76.9 | 78.5 | –
GCGGGCGAGGATCCAGCGCGCG+CGCGCGCTGGATCCTCGCCCGC ((((((((((((((((((((((+)))))))))))))))))))))) | – | – | – | – | – | Tm (sodium 0.12 M, strand 5.3 µM): 77.2 °C
ATGGGTGGGAGCCTCGGTAGCAGCC+GGCTGCTACCGAGGCTCCCACCCAT (((((((((((((((((((((((((+))))))))))))))))))))))))) | 70.7 | 74.5 | 78.2 | 81.6 | 83.4 | –
ACGCCCACAGGATTAGGCTGGCCCACATTG+CAATGTGGGCCAGCCTAATCCTGTGGGCGT ((((((((((((((((((((((((((((((+)))))))))))))))))))))))))))))) | 71.3 | 74.7 | 78.5 | 82.7 | 84 | –
TACTTCCAGTGCTCAGCGTA+TACGCTGAGCACTGGAAGTA ((((((((((((((((((((+)))))))))))))))))))) | 60.3 | 64.4 | 67.7 | 71.6 | 73.6 | –
CAGTGAGACAGCAATGGTCG+CGACCATTGCTGTCTCACTG ((((((((((((((((((((+)))))))))))))))))))) | 59.8 | 63.5 | 67 | 71.1 | 72.5 | –
AAATAAATAGCTATTTATTT+AAATAAATAGCTATTTATTT ((((((((((((((((((((+)))))))))))))))))))) | – | – | – | – | – | Tm (sodium 0.12 M, strand 7 µM): 47.1 °C
ATACGCGAGGATCCAGCGCAAT+ATTGCGCTGGATCCTCGCGTAT ((((((((((((((((((((((+)))))))))))))))))))))) | – | – | – | – | – | Tm (sodium 0.12 M, strand 4 µM): 71.1 °C
AATATATATGAATTCTAATTATAA+TTATAATTAGAATTCATATATATT ((((((((((((((((((((((((+)))))))))))))))))))))))) | – | – | – | – | – | Tm (sodium 0.12 M, strand 4.4 µM): 46.2 °C
AATATGAATTCTAATA+TATTAGAATTCATATT ((((((((((((((((+)))))))))))))))) | – | – | – | – | – | Tm (sodium 0.12 M, strand 6 µM): 41.4 °C
TCAGTAGGCGTGACGCAGAGCTGGCGATGG+CCATCGCCAGCTCTGCGTCACGCCTACTGA ((((((((((((((((((((((((((((((+)))))))))))))))))))))))))))))) | 72.2 | 75.7 | 79.3 | 83.3 | 84.6 | –
AGATCATATATATCGAT+ATCGATATATATGATCT (((((((((((((((((+))))))))))))))))) | – | – | – | – | – | Tm (sodium 0.12 M, strand 4 µM): 49.2 °C
CTGGTCTGGATCTGAGAACTTCAGG+CCTGAAGTTCTCAGATCCAGACCAG (((((((((((((((((((((((((+))))))))))))))))))))))))) | 62.1 | 65.8 | 69.6 | 74.2 | 75.6 | –
AAGCTATATATATCGAT+ATCGATATATATAGCTT (((((((((((((((((+))))))))))))))))) | – | – | – | – | – | Tm (sodium 0.12 M, strand 5 µM): 50.2 °C
CTCGTACCTTTCCGGTCC+GGACCGGAAAGGTACGAG ((((((((((((((((((+)))))))))))))))))) | – | – | – | – | – | Tm (sodium 0.1 M, strand 4 µM): 61.7 °C
CGGAATCCATGTTACTTCGGCTATC+GATAGCCGAAGTAACATGGATTCCG (((((((((((((((((((((((((+))))))))))))))))))))))))) | 60.9 | 64.7 | 68.7 | 73.3 | 74.8 | –
ATAAATTAGGATCCATATAAAT+ATTTATATGGATCCTAATTTAT ((((((((((((((((((((((+)))))))))))))))))))))) | – | – | – | – | – | Tm (sodium 0.12 M, strand 5.8 µM): 47.7 °C
ACTGGCGAGGATCCAGCGGTCA+TGACCGCTGGATCCTCGCCAGT ((((((((((((((((((((((+)))))))))))))))))))))) | – | – | – | – | – | Tm (sodium 0.12 M, strand 4.1 µM): 71.8 °C
TTCCAAAAGGAGTTATGAGTTGCGA+TCGCAACTCATAACTCCTTTTGGAA (((((((((((((((((((((((((+))))))))))))))))))))))))) | 59.1 | 63 | 67.2 | 71.6 | 73.8 | –
CCCTGCACTTTAACTGAATTGTTTA+TAAACAATTCAGTTAAAGTGCAGGG (((((((((((((((((((((((((+))))))))))))))))))))))))) | 57.4 | 61.4 | 65.6 | 70.1 | 72.5 | –
CTCGTACCTTCCGGTCC+GGACCGGAAGGTACGAG (((((((((((((((((+))))))))))))))))) | – | – | – | – | – | Tm (sodium 0.1 M, strand 4 µM): 60.6 °C
GATGACGCTAGCTAGCTAGGAC+GTCCTAGCTAGCTAGCGTCATC ((((((((((((((((((((((+)))))))))))))))))))))) | – | – | – | – | – | Tm (sodium 0.15 M, strand 1.1 µM): 64 °C
AATATATATAGAGTAATTATAA+TTATAATTACTCTATATATATT ((((((((((((((((((((((+)))))))))))))))))))))) | – | – | – | – | – | Tm (sodium 0.12 M, strand 5 µM): 45.1 °C
